Data from article PMC3215731.

Molecular target: TNC-scTNFR2 (trimerization domain of human tenascin C fused to the N-terminus of the TNFR2-selective single-chain TNF) (human) (UniProt P24821)
Assay: SEC; HPLC-SEC, BioSep-SEC-S2000 7.8x300 column, PBS, 0.5 ml/min, 50 µl sample at 0.1 to 0.5 mg/ml, against standard proteins; oligomerization state under native conditions

“TNC-scTNFR2 (trimerization domain of human tenascin C fused to the N-terminus of the TNFR2-selective single-chain TNF) (from UniProt P24821 110-139) (ligand)” was tested, and the stoichiometry N was 3.
